Experimental data: the supplement of paper PMC7877785
± gives the uncertainty stated by the source.

Test: self-splicing fitness, log relative to wild type (ln ratio); higher = more splicing; Tetrahymena group I intron in knt gene, E. coli kanamycin selection, DiMSum; sequences stand for … in CUCUCU…GGAGGGAAAAGUUAUCAGGCAUGCACCUGGUAGCUAGUCUUUAAACCAAUAGAUUGCAUCGGUUUAAAAGGCAAGACCGUCAAAUUGCGGGAAAGGGGUCAACAGCCGUUCAGUACCAAGUCUCAGGGGAAACUUUGAGAUGGCCUUGCAAAGGGUAUGGUAAUAAGCUGACGGACAUGGUCCUAACCACGCAGCCAAGUCCUAAGUCAACAGAUCUUCUGUUGAUAUGGAUGCAGUUCACAGACUAAAUGUCGGUCGGGGAAGAUGUAUUCUUCUCAUAAGAUAUAGUCGGACCUCUCCUUAAUGGGAGCUAGCGGAUGAAGUGAUGCAACACUGGAGCCGCUGGGAACUAAUUUGUAUGCGAAAGUAUAUUGAUUAGUUUUGGAGUACUCGUGGUCG
In short: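 Colonies from six replicate transformations of E. coli BL21(DE3) were pooled and amplicon-sequenced on an Illumina HiSeq 2500. The library placed an intron with all eight P1ex-region nucleotides randomised inside the knt kanamycin-resistance gene on pET-22b(+), and cells grew overnight at 37°C or 30°C on LB agar with or without 25 μg/mL kanamycin (plus 100 μg/mL carbenicillin, 50 μM IPTG, 0.2% rhamnose). Fitness is the DiMSum error-weighted combination of wild-type-normalised replicate fold changes, kanamycin versus none.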

Row | Sequence | self-splicing fitness (ln) (30 °C) | self-splicing fitness (ln) (37 °C)
1 | UGCGAGCAAUAUUACGACCG | -1.72 ± 0.17 | 0.112 ± 0.21
2 | GACCAGCAAUAUUACGACUC | -0.264 ± 0.06 | 0.162 ± 0.077
3 | GCUAAGCAAUAUUACGGGCU | – | -2.23 ± 0.31
4 | UAAUAGCAAUAUUACGGUGU | -2.98 ± 0.21 | -2.93 ± 0.3
5 | ACACAGCAAUAUUACGCAGC | -3.73 ± 0.19 | -2.47 ± 0.17
6 | UCCCAGCAAUAUUACGAACC | -1.58 ± 0.2 | -2.08 ± 0.46
7 | CCUAAGCAAUAUUACGGGUG | -2.47 ± 0.077 | -1.11 ± 0.073
8 | AAAAAGCAAUAUUACGGGUC | -3.39 ± 0.16 | -2.7 ± 0.26
9 | CUAUAGCAAUAUUACGCCAG | -1.83 ± 0.18 | -0.622 ± 0.25
10 | CCUUAGCAAUAUUACGUCCG | -1.73 ± 0.11 | -0.989 ± 0.17
11 | GGGCAGCAAUAUUACGGCAA | -0.705 ± 0.14 | -0.742 ± 0.17
12 | AGUCAGCAAUAUUACGAUGG | -1.55 ± 0.062 | -0.364 ± 0.083
13 | UACUAGCAAUAUUACGGAUG | -0.926 ± 0.077 | -0.112 ± 0.11
14 | AGCGAGCAAUAUUACGCGCU | -1.6 ± 0.23 | –
15 | UUCGAGCAAUAUUACGGCUG | -2.58 ± 0.23 | -1.81 ± 0.22
16 | CUCUAGCAAUAUUACGUCGG | -3.22 ± 0.22 | -1.57 ± 0.18
17 | UCAGAGCAAUAUUACGGAGA | -2.08 ± 0.15 | -1.93 ± 0.17
18 | GGGUAGCAAUAUUACGGCGC | -0.217 ± 0.12 | -1.14 ± 0.12
19 | UGGUAGCAAUAUUACGUGCC | -1.42 ± 0.21 | -2.45 ± 0.39

Row | Sequence | self-splicing fitness (ln) (30 °C) | self-splicing fitness (ln) (37 °C)
20 | CGACAGCAAUAUUACGUAGU | -3.12 ± 0.099 | -2.11 ± 0.12
21 | UUACAGCAAUAUUACGGGCU | -3.86 ± 0.24 | -2.32 ± 0.18
22 | AAGAAGCAAUAUUACGGUAU | -2.08 ± 0.073 | -0.974 ± 0.084
23 | CAGAAGCAAUAUUACGUCUG | -3.35 ± 0.16 | -3.09 ± 0.21
24 | CGAGAGCAAUAUUACGUACA | -1.64 ± 0.27 | -1.71 ± 0.42
25 | CCUUAGCAAUAUUACGUGCC | -4.23 ± 0.25 | -2.41 ± 0.28
26 | AAGGAGCAAUAUUACGAAGU | -3.53 ± 0.43 | -2.57 ± 0.36
27 | UCUAAGCAAUAUUACGAUGG | -0.0699 ± 0.087 | 0.158 ± 0.11
28 | AUUGAGCAAUAUUACGUCGA | -3.47 ± 0.31 | -1.18 ± 0.25
29 | GUAGAGCAAUAUUACGCACA | -0.23 ± 0.14 | -0.117 ± 0.14
30 | CUGUAGCAAUAUUACGUCAU | -4.07 ± 0.3 | -3.14 ± 0.24
31 | GAGAAGCAAUAUUACGUAGG | -3.2 ± 0.23 | -0.924 ± 0.15
32 | GUGUAGCAAUAUUACGUGAA | -1.94 ± 0.19 | -0.954 ± 0.2
33 | UACAAGCAAUAUUACGUCUC | -1.68 ± 0.1 | -2.24 ± 0.17
34 | CGCUAGCAAUAUUACGUGGC | -2.89 ± 0.2 | -2.72 ± 0.2
35 | UCGGAGCAAUAUUACGCGGG | -4.21 ± 0.31 | -2.77 ± 0.27
36 | AAGAAGCAAUAUUACGGUGU | -1.99 ± 0.072 | -1.65 ± 0.086
37 | GUUGAGCAAUAUUACGGUUU | -4.2 ± 0.33 | -2.73 ± 0.32
38 | GACGAGCAAUAUUACGUUCA | -1.67 ± 0.19 | -0.881 ± 0.16
